According to publication doi:10.1101/2024.07.08.602551, “An avidity-driven mechanism of extracellular BMP regulation by Twisted gastrulation” (bioRxiv, 2024):

T1: human ΔN-Chordin (human, UniProt Q9H2X0 127-955)
T1 construct: Chordin, human, truncated form missing the N-terminal vWC1 domain but retaining the C-terminal vWC2-4 domains; source: purified, recombinantly expressed; prepared as described previously (Troilo et al., 2014)
T1 sequence (looked up): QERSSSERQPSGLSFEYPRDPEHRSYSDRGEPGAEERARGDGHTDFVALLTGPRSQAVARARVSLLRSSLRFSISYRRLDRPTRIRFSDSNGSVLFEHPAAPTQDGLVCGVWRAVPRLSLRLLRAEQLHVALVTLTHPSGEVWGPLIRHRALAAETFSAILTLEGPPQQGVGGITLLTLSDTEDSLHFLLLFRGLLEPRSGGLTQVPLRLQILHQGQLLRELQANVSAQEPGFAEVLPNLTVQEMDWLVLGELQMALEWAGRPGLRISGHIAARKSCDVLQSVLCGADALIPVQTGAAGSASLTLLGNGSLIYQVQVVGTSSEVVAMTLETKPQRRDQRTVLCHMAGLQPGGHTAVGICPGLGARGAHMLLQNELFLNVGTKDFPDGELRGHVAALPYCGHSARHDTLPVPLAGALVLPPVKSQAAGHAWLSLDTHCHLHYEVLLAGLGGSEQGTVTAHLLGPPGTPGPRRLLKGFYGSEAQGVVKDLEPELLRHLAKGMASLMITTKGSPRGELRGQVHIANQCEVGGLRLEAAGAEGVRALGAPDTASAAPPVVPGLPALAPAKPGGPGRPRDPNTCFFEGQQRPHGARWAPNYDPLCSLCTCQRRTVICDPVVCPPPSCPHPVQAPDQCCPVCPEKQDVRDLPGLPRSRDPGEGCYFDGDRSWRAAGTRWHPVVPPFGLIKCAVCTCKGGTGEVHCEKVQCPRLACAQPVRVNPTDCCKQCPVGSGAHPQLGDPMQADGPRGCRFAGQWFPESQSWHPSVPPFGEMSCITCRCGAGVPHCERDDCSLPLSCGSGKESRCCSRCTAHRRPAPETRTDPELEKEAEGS


Biological target: T1, human ΔN-Chordin
Experiment: SPR; Biacore T200; wildtype or mutant Tsg immobilised on CM5 by amine coupling (350 RU); analyte (ΔN-Chordin or CHRDL2) in a two-fold series, 30 μl/min, 200 s, 300 s dissociation; 20 mM HEPES, 150 mM NaCl, 0.05% Tween20, pH 7.4, 25°C; Langmuir 1:1 fit; triplicate
Conditions: both partners purified

Kd | Binder
14 nM | human Twisted gastrulation (residues Cys26-Phe223) (natural protein, UniProt Q9GZX9 26-223, looked up, Cloned in the vector pHLsec (Addgene_99845) between AgeI and KpnI; secreted; also called Tsg; human Tsg; source: Expi293-F cells, transfected, purified from conditioned media (Strep-Tactin XT, SEC)) CNKALCASDVSKCLIQELCQCRPGEGNCSCCKECMLCLGALWDECCDCVGMCNPRNYSDTPPTSKSTVEELHEPIPSLFRALTEGDTQLNWNIVSFPVAEELSHHENLVSFLETVNQPHHQNVSVPSNNVHAPYSSDKEHMCTVVYFDDCMSIHQCKISCESMGASKYRWFHNACCECIGPECIDYGSKTVKCMNCMF
60 nM | human Twisted gastrulation Leu107Ala (natural protein, UniProt Q9GZX9 26-223, looked up, Twisted gastrulation (Tsg), human, residues Cys26-Phe223, with the point mutation L107A; Point mutant of m1 made by PCR and In-Fusion cloning; also called Tsg^L107A; source: Expi293-F cells, transfected, purified from conditioned media (Strep-Tactin XT, SEC)) CNKALCASDVSKCLIQELCQCRPGEGNCSCCKECMLCLGALWDECCDCVGMCNPRNYSDTPPTSKSTVEELHEPIPSLFRAATEGDTQLNWNIVSFPVAEELSHHENLVSFLETVNQPHHQNVSVPSNNVHAPYSSDKEHMCTVVYFDDCMSIHQCKISCESMGASKYRWFHNACCECIGPECIDYGSKTVKCMNCMF
